Variants at the floor of the assay were thinned out.
How the values were obtained:
biotinyl-Phe-oxazolone = assay: self-aminoacylation, catalytic enhancement (BFO) (fold over background); higher = more active; k-Seq, kA / k0A0; sequences stand for … in GGGAAUGGAUCCACAUCUACGAAUUC…UUCACUGCAGACUUGACGAAGCUG
Procedure, shortened: (§1)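 Catalytic enhancement equals the median kA over the uncatalyzed rate, the latter read from the low-activity peak of a bimodal Gaussian fit. Values of kA came from fitting each sequence's fraction reacted to a pseudo-first-order model, with 1000 bootstraps. Reacted RNA was captured with streptavidin and quantified by triplicate qPCR and Illumina sequencing after 90 minutes at room temperature with 2–1250 μM biotinyl-aminoacyl-oxazolone and 0.43 μM mutagenized RNA pools bearing a 21-nt variable region.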

biotinyl-Ile-oxazolone = assay: self-aminoacylation, catalytic enhancement (BIO) (fold over background); higher = more active; k-Seq, kA / k0A0; sequences stand for … in GGGAAUGGAUCCACAUCUACGAAUUC…UUCACUGCAGACUUGACGAAGCUG
Procedure, shortened: as §1

biotinyl-Met-oxazolone = assay: self-aminoacylation, catalytic enhancement (BMO) (fold over background); higher = more active; k-Seq, kA / k0A0; sequences stand for … in GGGAAUGGAUCCACAUCUACGAAUUC…UUCACUGCAGACUUGACGAAGCUG
Procedure, shortened: as §1

biotinyl-Val-oxazolone = assay: self-aminoacylation, catalytic enhancement (BVO) (fold over background); higher = more active; k-Seq, kA / k0A0; sequences stand for … in GGGAAUGGAUCCACAUCUACGAAUUC…UUCACUGCAGACUUGACGAAGCUG
Procedure, shortened: as §1

biotinyl-Leu-oxazolone = assay: self-aminoacylation, catalytic enhancement (BLO) (fold over background); higher = more active; k-Seq, kA / k0A0; sequences stand for … in GGGAAUGGAUCCACAUCUACGAAUUC…UUCACUGCAGACUUGACGAAGCUG
Procedure, shortened: as §1

biotinyl-Trp-oxazolone = assay: self-aminoacylation, catalytic enhancement (BWO) (fold over background); higher = more active; k-Seq, kA / k0A0; sequences stand for … in GGGAAUGGAUCCACAUCUACGAAUUC…UUCACUGCAGACUUGACGAAGCUG
Procedure, shortened: as §1

Sequence | self-aminoacylation (biotinyl-Phe-oxazolone) | self-aminoacylation (biotinyl-Ile-oxazolone) | self-aminoacylation (biotinyl-Met-oxazolone) | self-aminoacylation (biotinyl-Val-oxazolone) | self-aminoacylation (biotinyl-Leu-oxazolone) | self-aminoacylation (biotinyl-Trp-oxazolone)
GUUACUCUGGUCAUCGAGUGA [Fam2.1 aminoacylation ribozyme variant] | 32.9 | 4.98 | 6.92 | 4.18 | 7.08 | 9.78
GUUCACCAAGGUCAUCGGGUG [Fam2.2 aminoacylation ribozyme variant] | 64.7 | 4.16 | 6.5 | 4.45 | 8.83 | 6
GUUCACCGAGGUCAUCGGGUG [Fam2.2 aminoacylation ribozyme variant] | 55.9 | 4.56 | 6.57 | 4.56 | 8.58 | 7.43
GUUCACCUACGUCAUCGGGUG [Fam2.2 aminoacylation ribozyme variant] | 31 | 3.26 | 4.35 | 3.69 | 5.15 | 4.3
GUUCACCUAGGUAAUCGGGUG [Fam2.2 aminoacylation ribozyme variant] | 9.25 | 2.38 | 2.74 | 2.12 | 2.92 | 3.83
GUUCACCUAGGUCAGCGGGUG [Fam2.2 aminoacylation ribozyme variant] | 26.1 | 2.92 | 4.02 | 3.23 | 4.21 | 4.42
GUUCACCUAGGUCAUCAGGUG [Fam2.2 aminoacylation ribozyme variant] | 2.03 | 1.23 | 1.09 | 1.35 | 1.32 | 1.06
GUUCACCUAGGUCAUCGAGUG [Fam2.2 aminoacylation ribozyme variant] | 27.6 | 8.09 | 11.4 | 6.89 | 15.7 | 6.52
GUUCACCUAGGUCAUCGCGUG [Fam2.2 aminoacylation ribozyme variant] | 96.1 | 6.72 | 10.5 | 6.96 | 15 | 10.6
GUUCACCUAGGUCAUCGGCUG [Fam2.2 aminoacylation ribozyme variant] | 7.17 | 1.67 | 1.49 | 1.98 | 2.04 | 1.97
GUUCACCUAGGUGAUCGGGUG [Fam2.2 aminoacylation ribozyme variant] | 21 | 3.88 | 3.88 | 3.88 | 4.25 | 4.84
GUUCACCUAUGUCAUCGGGUG [Fam2.2 aminoacylation ribozyme variant] | 21.4 | 3.1 | 4.03 | 3.31 | 5.63 | 4.3
GUUCAGCUAGGUCAUCGGGUG [Fam2.2 aminoacylation ribozyme variant] | 25 | 3.97 | 3.72 | 4.11 | 5.08 | 5.82
GUUCGCCUAGGUCAUCGGGUG [Fam2.2 aminoacylation ribozyme variant] | 121 | 9.85 | 18.9 | 10.2 | 22.8 | 14.9
GUUCUUCAAACAAUCGGUCUG [Fam1A.1 aminoacylation ribozyme variant] | 3.63 | 0.863 | 1 | 0.824 | 0.983 | 2.39
UAGUCUGCUAAUAGUCGCAAG [Fam3.1 aminoacylation ribozyme variant] | 32.7 | 2.01 | 2.17 | 1.81 | 1.83 | 9.92
UAGUUUGCUAAUAGCCGCAAG [Fam3.1 aminoacylation ribozyme variant] | 2.71 | 1.22 | 0.885 | 1.05 | 1.25 | 1.88
UAGUUUGCUAAUAGUCCCAAG [Fam3.1 aminoacylation ribozyme variant] | 2.1 | 1.03 | 0.851 | 0.864 | 0.805 | 1.37
UAGUUUGCUAAUAGUCGCAAA [Fam3.1 aminoacylation ribozyme variant] | 1.58 | 1.95 | 1.75 | 1.38 | 1.53 | 2.06
UAGUUUGCUAAUAGUCGCCAG [Fam3.1 aminoacylation ribozyme variant] | 1.74 | 1.47 | 1.69 | 1.2 | 1.7 | 1.16
UAGUUUGCUAAUAGUGGCAAG [Fam3.1 aminoacylation ribozyme variant] | 1.63 | 0.819 | 0.891 | 0.688 | 0.753 | 0.543
UAGUUUGCUAAUAUUCGCAAG [Fam3.1 aminoacylation ribozyme variant] | 1.71 | 1.3 | 1.22 | 1.26 | 1.04 | 1.21
UAGUUUGCUACUAGUCGCAAG [Fam3.1 aminoacylation ribozyme variant] | 1.57 | 1.42 | 1.24 | 1.1 | 1.23 | 1.23
UAGUUUGCUUAUAGUCGCAAG [Fam3.1 aminoacylation ribozyme variant] | 2.08 | 1.53 | 1.84 | 1.54 | 1.59 | 1.81
UAUUUUGCUAAUAGUCGCAAG [Fam3.1 aminoacylation ribozyme variant] | 1.99 | 1.75 | 1.65 | 1.52 | 1.31 | 1.47
UCACACUCCAAGCAAUCGGUC [Fam1B.1 aminoacylation ribozyme variant] | 2.4 | 0.885 | 0.825 | 1.13 | 0.792 | 1.44

Sequence | self-aminoacylation (biotinyl-Phe-oxazolone) | self-aminoacylation (biotinyl-Ile-oxazolone) | self-aminoacylation (biotinyl-Met-oxazolone) | self-aminoacylation (biotinyl-Val-oxazolone) | self-aminoacylation (biotinyl-Leu-oxazolone) | self-aminoacylation (biotinyl-Trp-oxazolone)
UCACACUUCAAGAAAUCGGUC [Fam1B.1 aminoacylation ribozyme variant] | 7.38 | 0.947 | 0.819 | 0.888 | 0.906 | 6.06
UCACACUUCAAGCAAACGGUC [Fam1B.1 aminoacylation ribozyme variant] | 0.679 | 0.639 | 0.682 | 0.792 | 0.506 | 0.586
UCACACUUCAAGCAAUCGAUC [Fam1B.1 aminoacylation ribozyme variant] | 1.49 | 0.589 | 0.501 | 0.808 | 0.468 | 0.732
UCACACUUCAAGCAAUCGGUA [Fam1B.1 aminoacylation ribozyme variant] | 1.13 | 0.993 | 1.1 | 1.12 | 1.04 | 1.49
UCACACUUCAAGCAAUCGUUC [Fam1B.1 aminoacylation ribozyme variant] | 1.45 | 0.696 | 0.602 | 0.792 | 0.611 | 0.608
UCACACUUCACGCAAUCGGUC [Fam1B.1 aminoacylation ribozyme variant] | 0.767 | 1.03 | 0.81 | 1.21 | 0.873 | 0.908
UCACGCUUCAAGCAAUCGGUC [Fam1B.1 aminoacylation ribozyme variant] | 84.1 | 1.32 | 1.56 | 1.7 | 2.46 | 41.6
UCCCACUUCAAGCAAUCGGUC [Fam1B.1 aminoacylation ribozyme variant] | 37 | 1.28 | 1.46 | 1.73 | 1.59 | 22.3
UCUCACCUAGGUCAUCGGGUG [Fam2.2 aminoacylation ribozyme variant] | 16.1 | 2.33 | 3.73 | 3.09 | 3.81 | 3.84
UCUCACUUCAAGCAAUCGGUC [Fam1B.1 aminoacylation ribozyme variant] | 44.5 | 1.23 | 1.15 | 1.35 | 1.71 | 21.5
UGACACUUCAAGCAAUCGGUC [Fam1B.1 aminoacylation ribozyme variant] | 21.5 | 1.84 | 1.33 | 1.37 | 1.89 | 14.5
UUACGUCAAACAAUCGGUCUG [Fam1A.1 aminoacylation ribozyme variant] | 6.37 | 1.98 | 1.99 | 1.68 | 1.58 | 2.38
UUACUUCAAACAAUCGAUCUG [Fam1A.1 aminoacylation ribozyme variant] | 1.8 | 0.852 | 0.711 | 0.719 | 0.824 | 0.866
UUACUUCAAACAAUCGGGCUG [Fam1A.1 aminoacylation ribozyme variant] | 8.04 | 1.76 | 1.93 | 1.66 | 2.22 | 7.54
UUACUUCAAACAAUCGGUUUG [Fam1A.1 aminoacylation ribozyme variant] | 31.5 | 1.59 | 1.48 | 1.24 | 1.86 | 20.3
UUACUUCAAAGAAUCGGUCUG [Fam1A.1 aminoacylation ribozyme variant] | 2.71 | 1.34 | 1.24 | 1.08 | 1.57 | 2.03
UUACUUGAAACAAUCGGUCUG [Fam1A.1 aminoacylation ribozyme variant] | 1.52 | 1.15 | 1.32 | 1.03 | 1.11 | 0.889
UUCCUUCAAACAAUCGGUCUG [Fam1A.1 aminoacylation ribozyme variant] | 5.13 | 0.784 | 0.806 | 0.647 | 0.937 | 4.06
UUGUUUGCUAAUAGUCGCAAG [Fam3.1 aminoacylation ribozyme variant] | 9.39 | 1.41 | 1.33 | 1.42 | 1.24 | 3.52
UUUACCCUGAUCAUCGAGUGA [Fam2.1 aminoacylation ribozyme variant] | 23.3 | 3.92 | 8.08 | 4.05 | 7.11 | 9.79
UUUACCCUGCUCAUCGAGUGA [Fam2.1 aminoacylation ribozyme variant] | 8.11 | 1.28 | 2.03 | 1.54 | 2.15 | 3.13
UUUACCCUGGUCAGCGAGUGA [Fam2.1 aminoacylation ribozyme variant] | 16.3 | 3.46 | 5.62 | 2.96 | 5.43 | 7.06
UUUACCCUGGUCAUAGAGUGA [Fam2.1 aminoacylation ribozyme variant] | 27.7 | 2.89 | 5.18 | 3.07 | 5.87 | 7.54
UUUACCCUGGUCAUCGAGUAA [Fam2.1 aminoacylation ribozyme variant] | 30.5 | 4.45 | 13.9 | 5.3 | 11.7 | 11.8
UUUACCCUGGUCAUCGAGUGA [Fam2.1 aminoacylation ribozyme variant] | 428 | 24.6 | 68.9 | 27 | 60.9 | 71.3

Reference: the supplement of paper PMC9233669
